According to patent US20040018603:
Where “and” joins values, the source holds several entries; their conditions need not be identical. Identical values can stand only once.

Experiments:
[1] = target: GST-Cdc25[254-316]-WT (62-amino acid region of Xenopus Cdc25 fused to glutathione S-transferase)

B1: His6-Xcds1 (histidine-tagged Xcds1 purified from E. coli) (protein)
chain: MMSRDTKTESQQSQGTSSSSSSSAPQSYSQSSSSGTLSSLDTVPVQDLASIPEDPEIDEDIPQPWGRLWALGKGFLNHDCLHEEYVFGRDKKCDYTFDIPVLNQTDRYKTYSKRHFRIFQELGHGHSRVANIEDLSGNGTFVNKEIIGKGRTLPLTNNAEIALSLPTNKVFVFSDLSVDDQTIYPKDFIDKYIMSRPIGSGACGEVKLAFQKSVCKKVAVKIISKRKFKMNTSSNEHPISVDTEIEILKKLDHPCIIKIENFFDSEDFYYIVLELMEGGELFDRVVNSTRLREPIAKLYFYQMLLAVQYLHENGVIHRDLKPENVLLSSTSEECCIKITDFGQSKILGETSLMRTLCGTPTYLAPEVLNTAGTTGYSSAVDCWSLGVILFVCLCGYPPFSEQNSNIPLKNQIAEGKYTYIAAAWRNVSEQAFDLVKNLLVVDPEQRLTTKQALEHPWLQDDSMKHTVERLMYGVDHTMPPPIKKNIIRKRGHEWDQDASTSSCSEILPTSAEKRAKR
With B1 the “phosphorylation in kinase assay with 32P-ATP (SDS-PAGE, PhosphorImager)” value (from here on “phosphorylation in kinase assay”) [1] was “His6-Xcds1, but not a catalytically inactive mutant (His6-Xcds1-N324A), phosphorylated a 62-amino acid region of Xenopus Cdc25 fused to glutathione S-transferase (GST-Cdc25[254-316]-WT)” and the “phosphorylation in kinase assay” value (GST-Cdc25[254-316]-S287A) was “a serine-to-alanine mutation at this position abolished the phosphorylation”.

B2: His6-Xcds1-N324A (catalytically inactive mutant) (protein)
chain: MMSRDTKTESQQSQGTSSSSSSSAPQSYSQSSSSGTLSSLDTVPVQDLASIPEDPEIDEDIPQPWGRLWALGKGFLNHDCLHEEYVFGRDKKCDYTFDIPVLNQTDRYKTYSKRHFRIFQELGHGHSRVANIEDLSGNGTFVNKEIIGKGRTLPLTNNAEIALSLPTNKVFVFSDLSVDDQTIYPKDFIDKYIMSRPIGSGACGEVKLAFQKSVCKKVAVKIISKRKFKMNTSSNEHPISVDTEIEILKKLDHPCIIKIENFFDSEDFYYIVLELMEGGELFDRVVNSTRLREPIAKLYFYQMLLAVQYLHENGVIHRDLKPEAVLLSSTSEECCIKITDFGQSKILGETSLMRTLCGTPTYLAPEVLNTAGTTGYSSAVDCWSLGVILFVCLCGYPPFSEQNSNIPLKNQIAEGKYTYIAAAWRNVSEQAFDLVKNLLVVDPEQRLTTKQALEHPWLQDDSMKHTVERLMYGVDHTMPPPIKKNIIRKRGHEWDQDASTSSCSEILPTSAEKRAKR
B2 was tested, and the “phosphorylation in kinase assay” value [1] was “but not a catalytically inactive mutant (His6-Xcds1-N324A)”.

B3: Hyperphosphorylated Xcds1 protein immunoprecipitated from egg extracts containing poly(dT)40 (protein)
chain: MMSRDTKTESQQSQGTSSSSSSSAPQSYSQSSSSGTLSSLDTVPVQDLASIPEDPEIDEDIPQPWGRLWALGKGFLNHDCLHEEYVFGRDKKCDYTFDIPVLNQTDRYKTYSKRHFRIFQELGHGHSRVANIEDLSGNGTFVNKEIIGKGRTLPLTNNAEIALSLPTNKVFVFSDLSVDDQTIYPKDFIDKYIMSRPIGSGACGEVKLAFQKSVCKKVAVKIISKRKFKMNTSSNEHPISVDTEIEILKKLDHPCIIKIENFFDSEDFYYIVLELMEGGELFDRVVNSTRLREPIAKLYFYQMLLAVQYLHENGVIHRDLKPENVLLSSTSEECCIKITDFGQSKILGETSLMRTLCGTPTYLAPEVLNTAGTTGYSSAVDCWSLGVILFVCLCGYPPFSEQNSNIPLKNQIAEGKYTYIAAAWRNVSEQAFDLVKNLLVVDPEQRLTTKQALEHPWLQDDSMKHTVERLMYGVDHTMPPPIKKNIIRKRGHEWDQDASTSSCSEILPTSAEKRAKR
B3 was tested, and the kinase activity of the immunoprecipitate, increase over background [1] was 5 fold and 6 fold.

B4: Xenopus laevis protein kinase Cds1 (Xcds1), endogenous protein in Xenopus egg extracts (protein)
chain: MMSRDTKTESQQSQGTSSSSSSSAPQSYSQSSSSGTLSSLDTVPVQDLASIPEDPEIDEDIPQPWGRLWALGKGFLNHDCLHEEYVFGRDKKCDYTFDIPVLNQTDRYKTYSKRHFRIFQELGHGHSRVANIEDLSGNGTFVNKEIIGKGRTLPLTNNAEIALSLPTNKVFVFSDLSVDDQTIYPKDFIDKYIMSRPIGSGACGEVKLAFQKSVCKKVAVKIISKRKFKMNTSSNEHPISVDTEIEILKKLDHPCIIKIENFFDSEDFYYIVLELMEGGELFDRVVNSTRLREPIAKLYFYQMLLAVQYLHENGVIHRDLKPENVLLSSTSEECCIKITDFGQSKILGETSLMRTLCGTPTYLAPEVLNTAGTTGYSSAVDCWSLGVILFVCLCGYPPFSEQNSNIPLKNQIAEGKYTYIAAAWRNVSEQAFDLVKNLLVVDPEQRLTTKQALEHPWLQDDSMKHTVERLMYGVDHTMPPPIKKNIIRKRGHEWDQDASTSSCSEILPTSAEKRAKR
B4 was tested, and the “kinase activity of the immunoprecipitate” value [1] was “endogenous Xcds1 immunoprecipitated from egg extracts phosphorylated this substrate well”.
